The text below walks through data of US12180485B2, “Repressible control of gene expression” (TRUSTEES OF BOSTON UNIVERSITY, priority 2020, dated 2024).

The subject of the experiment is mCherry expression in HEK293 FT cells. Put plainly: Inducible split RfxCas13d (GIB, RAP, ABA, Dano, GRZ CID domains; NES/NLS variants) mCherry knockdown, leakiness and inducibility. Type of experiment: cell-based. An excerpt:
FIG. 6A-6C is a series of schematics and graphs showing that split RfxCas13d's reconstituted and functioned to knockdown mCherry expression in HEK293 FT cells FIG. 6A is a schematic showing split sites selected throughout RfxCas13d sequence. FIG. 6B is a bar graph showing mCherry expression under 4 conditions for gibberellin-inducible, rapalog-inducible, and abscisic acid-inducible inducible split Cas13d designs. In FIG. 6B and FIG. 6C, the left-right order of the bars for each split site is the same as the left-right order of the legend for each bar graph.
FIG. 7A-7E is a series of schematics and graphs showing a functional and inducible split Cas13d design. FIG. 7A is a bar graph showing additional split sites selected in RfxCas13d and tested with GIB CID domains. […] In FIG. 7A and FIG. 7C, the left-right order of the bars for each split site is the same as the left-right order of the legend. FIG. 7B is a schematic showing the design to compartmentalize splits. Compartmentalizing moieties facilitates the reduction of leakiness. […] FIG. 7D is a schematic showing the experiment flow for testing reversibility of the inducible split Cas13d's.
FIG. 8A-8B is a series of schematics and graphs showing that split RfxCas13d's reconstituted upon drug-induced dimerization and knocked down mCherry expression in HEK293 FT cells. FIG. 8A is a bar graph showing quantification of system performance. The left-right order of the bars for each split site is the same as the top-down order of the legend. […] System performance in leakiness score (left axis) and induced activity (right axis) by GIB, RAP, ABA, and Dano-inducible split Cas13d designs.
FIG. 10A-10B is a series of schematics and graphs showing performance optimization through separating split Cas13d moieties in different cellular compartments. […] The left-right order of the bars for each bar graph is the same as the top-down order of the legend.
FIG. 11 is a series of schematics and graphs showing the testing of reversed orientation (dark grey dots) of CID domains with respect to split Cas13d pieces against original orientations (light grey dots) designed for GIB, ABA, Dano, and GRZ inducible systems.

[1] abbreviates: RfxCas13d split with GIB CID domains.

B1: Split 263/264: RfxCas13d split at 263/264 (SEQ ID NOs: 14, 15) with GIB CID domains (protein)
chain 1: IEKKKSFAKGMGVKSTLVSGSKVYMTTFAEGSDARLEKIVEGDSIRSVNEGEAFSAEMADKNAGYKIGNAKFSHPKGYAVVANNPLYTGPVQQDMLGLKETLEKRYFGESADGNDNICIQVIHNILDIEKILAEYITNAAYAVNNISGLDKDIIGFGKFSTVYTYDEFKDPEHHRAAFNNNDKLINAIKAQYDEFDNFLDNPRLGYFGQAFFSKEGRNYIINYGNECYDILALLSGLRHWVVHNNEEESRISRTWLYNLDKNL
chain 2: DNEYISTLNYLYDRITNELTNSFSKNSAANVNYIAETLGINPAEFAEQYFRFSIMKEQKNLGFNITKLREVMLDRKDMSEIRKNHKVFDSIRTKVYTMMDFVIYRYYIEEDAKVAAANKSLPDNEKSLSEKDIFVINLRGSFNDDQKDALYYDEANRIWRKLENIMHNIKEFRGNKTREYKKKDAPRLPRILPAGRDVSAFSKLMYALTMFLDGKEINDLLTTLINKFDNIQSFLKVMPLIGVNAKFVEEYAFFKDSAKIADELRLIKSFARMGEPIADARRAMYIDAIRILGTNLSYDELKALADTFSLDENGNKLKKGKHGMRNFIINNVISNKRFHYLIRYGDPAHLHEIAKNEAVVKFVLGRIADIQKKQGQNGKNQIDRYYETCIGKDKGKSVSEKVDALTKIITGMNYDQFDKKRSVIEDTGRENAEREKFKKIISLYLTVIYHILKNIVNINARYVIGFHCVERDAQLYKEKGYDINLKKLEEKGFSSVTKLCAGIDETAPDKRKDVEKEMAERAKESIDSLESANPKLYANYIKYSDEKKAEEFTRQINREKAKTALNAYLRNTKWNVIIREDLLRIDNKTCTLFRNKAVHLEVARYVHAYINDIAEVNSYFQLYHYIMQRIIMNERYEKSSGKVSEYFDAVNDEKKYNDRLLKLLCVPFGYCIPRFKNLSIEALFDRNEAAKFDKEKKKVSGNS
modifications: GIB CID domains attached
On to B1, for which, under setting [1], the knockdown efficiency result is “over 60%” and the “leaky off state activity” value was “minimum leaky off state activity”.

B2: SEQ ID NO: 801: inducible system polypeptide, probably Table 20 (GID-GAI) (protein)
chain: MLDLASLILIEKKKSFAKGMGVKSTLVSGSKVYMTTFAEGSDARLEKIVEGDSIRSVNEGEAFSAEMADKNAGYKIGNAKFSHPKGYAVVANNPLYTGPVQQDMLGLKETLEKRYFGESADGNDNICIQVIHNILDIEKILAEYITNAAYAVNNISGLDKDIIGFGKFSTVYTYDEFKDPEHHRAAFNNNDKLINAIKAQYDEFDNFLDNPRLGYFGQAFFSKEGRNYIINYGNECYDILALLSGLRHWVVHNNEEESRISRTWLYNLDKNLDNEYISTLNYLYDRITNELTNSFSKNSAANVNYIAETLGINPAEFAEQYFRFSIMKEQKNLGFNITKLREVMLDRKDMSEIRKNHKVFDSIRTKVYTMMDFVIYRYYIEEDAKVAAANKSLPDNEKSLSEKDIFVINLRGSFNDDQKDALYYDEANRIWRKLENIMHNIKEFRGNKTREYKKKDAPRLPRILPAGRDVSAFSKLMYALTMFLDGKEINDLLTTLINKFDNIQSFLKVMPLIGVNAKFVEEYAFFKDSAKIADELRLIKSFARMGEPIADARRAMYIDAIRILGTNLSYDELKSGGSGSGSSGGSGTMAASDEVNLIESRTVVPLNTWVLISNFKVAYNILRRPDGTFNRHLAEYLDRKVTANANPVDGVFSFDVLIDRRINLLSRVYRPAYADQEQPPSILDLEKPVDGDIVPVILFFHGGSFAHSSANSAIYDTLCRRLVGLCKCVVVSVNYRRAPENPYPCAYDDGWIALNWVNSRSWLKSKKDSKVHIFLAGDSSGGNIAHNVALRAGESGIDVLGNILLNPMFGGNERTESEKSLDGKYFVTVRDRDWYWKAFLPEGEDREHPACNPFSPRGKSLEGVSFPKSLVVVAGLDLIRDWQLAYAEGLKKAGQEVKLMHLEKATVGFYLLPNNNHFHNVMDEISAFVNAECLDLASLIL
Turning to B2, the “performance in the tested conditions” value (inducible polypeptide systems of Tables 18-22) is “highest performance”.
